A protein production outcome set (Wang et al. 2014)

experiment: label from the status in PepcDB records

With “MPRYKTVEQVLSLMKDRTRVRNIGIIAHVDHGKTTTSDTLLAASGIISPKVAGEALALDYLNVEQQRGITVKAANISLYHEAEGKGYVINLIDTPGHVDFSGRVTRSLRVLDGSIVVVDAVEGIMTQTETVLRQSLEERVRPILFINKVDRLVKELKLSPQEMLNRLLDIIRQVNNLIDMYGEPEFKEKWMINPQAGNVIFGSAKDKWGFSLPMAQKKGINMKNVIDAYTASDKSKLEELAAQAPINEALLDAAIKFVPNPIEAQKYRIPKIWKGDLDNELAKAMLNADPNGPIVFMITDMKVDPHAGLVATGRVFSGTLRSGEELWLVNAKTSQRILQVSLYMGPTRELAEEIPAGNIAAVLGLDRARSGETAISVGFSNVQGSFERLHYISEPVVTIAVEPKNPKDLTKMIDALRKLSIEDPNLVVKINEETGEYLLSGMGFLHLEVSLQLLRENYGIDVVTTPPIVVYRESIRAKSQVFEGKSPNKHNKFYLSVEPLNDKTIELISNGTIREDMDSKEMAKILRDEASWDYDEAKRIIAIDENVNVFVDLTSGVQHLREVMDTVLQGFRLAMKEGPLAHEPIRGVKVILHDAVIHEDPAHRGPAQIYPAVRNSIFAGFLTSRPTLLEPIQKLDIRVPADLIGNVTAVITRKRGKILDVSQIANMSRITAEIPVSESYDMASELRGSTGGRAFWGTEFSRWAPVPDSILLDVVTKIRERKGLPKELPKVEDFLS” as the sequence, how does the protein production read?
Its protein production is “failed”.

For “MPSCAVEGNPSVHTPHPPRPLYPPRPAMPPGESDESLGGQLRGRPEGAAPHPVALLMARHWESTYDYAVICLASSANVASIVTAGAFQQVVGRLMRSGSAAAVRPALLVAVRDTVREWSAEERISGVLPELRKPAGGRGMRAAKSLTPENRVLAERSFLTLPGLSRCLLWHTEVEAESISVPAGLSGIGTDTATAALEQAREQFREGCVRAHRELAPTKECRLYNRLLDVPIRRGGALLPDVQRHLLGCRFCRNAAEQLSHFEGALGGLLAEAVLGWGARRYLESRPGRTPYGGRARGVSGSGGRPGSGGRHRLLAQIPAPGRRTPVGERGARAVLTGVGIASAAVLATFLVTGLWSNDDGNVDPTASTSASGGRTTVLPTPGSQIPPTVSSPPDSAGLPTTPRQTRLRNLAADLCLDVRGEAKAGAGTKLAVCSSAWTQQWTYEKDGLLRSVADPELCLDSGAVDGVAELGRCVAESSAHGGDVRYDLTVQGEVLSRRKGSLAVTPGNTDPDADIVVKVRDGSDKQRWLTDSPSDQPESLSIAGTTPPSATPATDAPAATPAPTPVPASPGTRLTDAPVASSAPPSENYGERRSLTVTDTSTPEPVLPLTVHLPDLLGEIGVGL”, which protein production is on record?
The protein production was “failed”.

With “MPSETTEHKTGPAVTVVIVSYQSGPTLEPCLARLAAQTFRDFETILIDNFSTDGAPQAAAKAHPWVDFVEAGANLGFAAGNNLAARRAKGRWLVLLNPDAYAEPDWLEELMAGAARHPTVKSFASLQLSADRPGLLDGAGDNVTSAGIPFRGGYGRKPPAVLPEGEVFSACGAAMLIDRDLFLSVGGFDERYFCYCEDVDLGYRLRLYGEPTLLLPKAKVAHVGSASTGVRSDFSIFHGSRNRVWTFLKNTPGWLLPVTLPLHVAVTAGLLLLHWRRGDVAPAIRGIRAALKREDLDQVMADRRLIQARRKASPGAILRVMSIDPAAFIGRRFVIRKWRGA” as the sequence, how does the protein production read?
Its protein production is “failed”.

With “MPSGRTHTKINLISLPVVLFMLFSYGLTNFDFLLTFAIGFLVGTTFLTPDLDTYSNAYNKWGFLRIFWYPYKKVMPHRSFFTHTIILGDVIRIAYMLIVFSPFLFLLNVIALDGNLIEMAKEHEVEIVTFVMGIVVASTLHIIADKVNTRRKKMMRKKKKRRR” as the sequence, how does the protein production read?
Its protein production is “failed”.

Which protein production does the source give for “MPSLLETKGPKITLGLDLRGGLNMLLGVQTDEALKNKYLSLASALEYNAKKQNILLKDIKSNLEGISFELLDEDEAKKLDALLLELQGHSQFEIKKEAGFYSVNLTPLEQEELRKNTILQVIGIIRNRLDQFGLAEPVVIQQGKEEISVQLPGIKTLEEERRAKDLISRSAHLQMMAVDEEHNKDAMKMTDLEAQKLGSVLLSDVEMGGKILLKAIPILDGEMLTDAKVVYDQNNQPVVSFTLDAQGAKIFGDFSGANVGKRMAIVLDNKVYSAPVIRERIGGGSGQISGNFSVAQASDLAIALRSGAMSAPIQVLEKRIIGPSLGKDSVKTSIIALVGGFILVMGFMVLYYSMAGVIACLALVVNLFLIVAVMAIFGATLTLPGMAGIVLTVGIAVDANIIINERIREVLRENEGIAKAIHLGYINASRAIFDSNITSLIASVLLYAYGTGAIKGFALTTGIGILASIITAIVGTQGIYQALLPKLTQTKSLYFWFGVNKRA” here?
Its protein production is “failed”.

With “MPSLPASAESLLPPTLDESTRLEVLRGLCLLDSPPDPVFDTVAAMAARSLDAEIAVVSLVDEHRQWFKARIGLEARETPRSQAFCAHAIRSDEVMVVPDAQLDPRFCDNPLVLGPPFIRFYAGAPLKLRDGHRIGTLCVIGTSPRPGLDQAAITQLEGLRDLAVLRVENLRSTTYRDGPTGLPNRSRFSEDLDTWLSQRDTAPATTAVAIDVCGSDYFRDMVKALGWEYADGYIALAQRRLAAYLPGGTLLYRLDPTTFGFLAQAEGQRLATLCTKVSKAFTEPLEHQGIPHTAVASIGAVSLQSSYGAADTIRSLTTAVDIARERCLPWSMYERKHDVAQRNTFRLLAALPAALDSSSQLRLHFQPRVDLHDHRCVGVEALLRWQHPMIGPVMPSDFIPMAEKTALINRITAWVIDNGIAQAARWQQQGLDFNLALNVSAADLDRPGFAGLLRRGLDRHKLDPRRLEIEFTESAMIRHPDHLAEQLAAIAALGVHIAIDDFGTGYSNFSYLKQLPASSLKIDQSFIRSLPDSRTDRTLVPAMIQLGHSLGQRVVAEGIESAEAYAQLRAWGCDEGQGYWIAKPMPAAALETWLETPWHEQHAAPVNLLAASLAAARV” as the sequence, how does the protein production read?
Its protein production is “failed”.

For “MPSMPFLTRPVLAAGTFSGAPQPTLPTGDGLVLRPWRTEDAPAVHVAFQDPVMHQWHARAADSEEEVRGWITEWQGAWERERGVQWAVADAADDRLLGRVALREWVLGDGVAEVAYWTTADARGRGVAARATRTLAHWALDEIGFQRLELLHAVANDASCRVAQKTGFALEGTKRKAVLHPDGWHDMHLHARVRGD”, which protein production is on record?
The protein production was “failed”.

For “MPSPARTLLLAFVSAWFLLGGLGHFVFTDFFVGIVPPYVPWPLAAVWVSGVFELLGAAALLVPAWRRLAACGLFILTLCVTPANLYMWQHPDLFPSFPPTLLAARLALQAFLLGCILALMLARDEAPLARR”, which protein production is on record?
The protein production was “failed”.

With “MPSSAFPDTRMTLACRRMAGGASALPSFRMGAGLAFQPGLENAMSTVQDYIVADIGLADYGRKELDIAETEMPGLMSCRSELGETKPLKGARISGSLHMTIQTAVLIETLTALGAEVRWASCNIFSTQDHAAAAIAASGVPVFAVKGESLTEYWDYTDRIFQWTDGGQSNMILDDGGDATMYILLGARAEAGENVLVNPSSEEEEILFAQIKKRMAATPGFFTKQRDAIKGVTEETTTGVNRLYQLSQKGLLPFPAINVNDSVTKSKFDNKYGCKESLVDGIRRATDVMMAGKVAVVCGYGDVGKGCAASLIGAGARVKVTEVDPICALQAAMDGFEVVRLEDVVKTADIFITTTGNKDVIRIEHMREMKDMAIVGNIGHFDNEIQVVALKNLKWVNIKPQVDMIEFPAGNRMILLSEGRLLNLGNATGHPSFVMSASFTNQVLAQIELFTKPDAYKNQVYVLPKHLDEKVARLHLEKLGVRLTELSDEQASYIGVTPSGPFKADHYRY” as the sequence, how does the protein production read?
Its protein production is “failed”.

With “MPSSILSESMIQAFFWSLITIGMYFITQKLYRRWPFWWLMPLALTPILVASVVLLLHVNYQDYFRGTKWLVLLIGPATVAFAIPIYEKRALIRQHWPVLLIGVIVGSFTAIASSWGLAILLGLDDNLRLSLLPRSISTPFAIEISRGIGAAPDLTAIFVIVTGILGAILGEFILSRLPFNSALARGALLGVGAHAAGTAQAHKIGNTEGAIASLAMILVGLFNILLLPLISYLLK” as the sequence, how does the protein production read?
The protein production was “failed”.

Which protein production does the source give for “MPTCAPAMVTTLYETPEHACLMFSDLVDDHDDQSVQTNQFLVVDHGHGALIDPGGNMTYNALYLAMNQYFPPKQLDYVLASHADPDIVASAGRWLTSSNCNILISRVWERFLPHFCNVGKTDGRILPIPDTGMAIPIGQSHLLAVPAHFLHSEGNFQFYDPVSRILFSGDLGASMVHAEIAAAPVEDFDAHIPLMAPFHRRYMSGNRVCRLWAEMVRGLEIEWIVPQHGRAFHGPAMVRRFIDWVETLTCGIDLMTQETFRLPALPRVAAGAPLRTPQP” here?
Its protein production is “failed”.

Which protein production does the source give for “MPTDRSTPATRHRLGGWMASEEAHMAAYREKIAGEARAHAGERLRTPAVQELARLFDDNAVLRMSLTRAIDEALESGRKLGYASIGELMTVIDHLMTYTPPFSESSLIVCPLNAFLDWPMCMPSGHAVFRDAAVNAHLKQVLNVWCDFLGGPHSCTHLDTSAPDGWFCDEARERLGLSQFQYQEDQPHWGFASWNDFFTRRFRADARPVTAPGDPHVIVSACEAQPYHAESNLKIRDKFWIKGQPYSLRDIFTPARLPLAERFVGGDLYQAYLSAYNYHRWHAPVRGTVTHAYRVDGTYYSVAEAEGPDPAGLNDSQGYMTAVAARAVIAIDCDDPGIGTVVGVFVGMGDVSSCVIEVMPGQRIDKGEEIGYFQYGGSTYCLLFEPGVIDHFVHAPPFDDDTPVVQVNAPVAIAR” here?
Its protein production is “failed”.

For “MPTDYIRNGVLYVTENYLCFESSKSGSSKRNKVIKLVDITDIQKYKVLSVLPGSGMGIAVSTPSTQKPLVFGAMVHRDEAFETILSQYIKITSAAASGGDS”, which protein production is on record?
The protein production was “failed”.

For “MPTFNPELHAQTLNSERAYFVQPDADPAFTPHIGALVEMLTYARLTTLQAVEGLPEDQLWATAPGFANSIGTLLAHIAAVERVYHVLSFQGRDVTPEDDGAAYWGLTMGKEGTAPARLPTLDELRAELADARAETLRVFAAKDDAWLAEPLGPGWANQHWAWFHVMEDEVNHRGQLRLLRQVLAPEEGG”, which protein production is on record?
Its protein production is “not failed”.

For “MPTIEDRYARLDAARWLAALAVVLLHSAAQTVSDPAAYGSHAWLAANLYDSAAHWCVPVFVMVSGALLLDPDQPHDARRFYSRRMARVCAPLLFWTLFYLAWRTALDWWDDGRLDFSFWPRKVAEGAPYYHLWYLYMIVGLYLFAPLVRLLYARSQPRARALWVVGILGVAVLDALYRRALGGGNGLFLTWFLPYLGYFVAGRLIFDGELRMPRPGLVLAASVAATAWGVSALSDSRALDLYFYDYFSVTVPLMSLAAFQLIVGSPRLPALPALPALAPLTFGIYLIHPLFLDLAHRIGAARAWRPDAWGVPAITAAVFALSALASWMLRRHRLTRRLV”, which protein production is on record?
The protein production was “failed”.

Which protein production does the source give for “MPTLDALTPIFRQVFDDDSIVLTRETSANDIDAWDSLSHMNLIVSLEVHYKIKFALGELQKLKNVGDLADLVDKKLARKLEHHHHHH” here?
Its protein production is “failed”.

With “MPTLLMITPENLEIKRFRAYQLNNFMQLTMPYLAGFVPKEYDIRLLDEHTEPIIFEKFDLVAITVNTPNAPYAYAISKKFRELGSWVALGGPHVTLNPEEAALHCDTIFIGEAEETWPQFLNDFLCKKAQKVYTSSRAPSLAGLPIPRRDLIVGNRFISGAVFASRGCPHNCSYCSLKKIYHNTFRTRPVDEVIKDIASMPNKYFVFWDDNFFADPSYTKALLKDLAKLNKKWAAQVTAHSCEDEELLRLAKSAGCLYLFLGLESFSEQGLKDANKSFNKIEQYGKIADKLHRHGISIQAGIVFGFDSDTPDVFETTLKACNDIGIDGVTASILTPFPGTGIYDQYKNEGRLLDVGWNYYNGKTRVAYVPKQMSPEELLNGYNEFRRKFYSWKSIIKRICKSRVNIFYNLAMNYGYRQAYRNFAKLDIGDSKGMNIFEQLI” as the sequence, how does the protein production read?
Its protein production is “failed”.

For “MPTNAGTSLSSYKHIVAIGTTVKSESLESAAYEIPRKRKMRSDSAAVSGNSVSTPKKLKSHLPSSVPNPGMSEKEVVEDSNEILRYPVNLAVSDCLGTKSKWSPRDEEQMRAVKEALHVSKAPSTILCREDEQIRIFEFVKGCIDQQKAGSLYICGCPGTGKSLSMEKVVQQVGDWSTQAGLPPVDTLSVNCTSLSKTTDIFSKILGEIKPGKNANTNSSPLQHLQNLFSQKQESSSSRMMLIIADEMDYLITKDRGVLYDLFMLTTLPFSRCILIGVANAIDLADRFLPKLKSLNCKPMVITFRAYSKDQILRILQERLRVLSYVAFQPKALELCARKVAAASGDMRKALCVCRSALEILEIETRGSTGPESQGPTPDDSVVRMDHMAAALSKTFKSPVVETIQSLPQHQQIIICAAAKAFRGSKKDATVGELNKLYLEICKSWMISPAGITEFTNMCTVLNDQGILKVGQARRDKLKRVSLRVDESDITFALQVNSLFILFFANP”, which protein production is on record?
The protein production was “failed”.
